T1: Cpn20 mutant G32A (A. thaliana, UniProt O65282 51-253, G32A)
T1 sequence (looked up): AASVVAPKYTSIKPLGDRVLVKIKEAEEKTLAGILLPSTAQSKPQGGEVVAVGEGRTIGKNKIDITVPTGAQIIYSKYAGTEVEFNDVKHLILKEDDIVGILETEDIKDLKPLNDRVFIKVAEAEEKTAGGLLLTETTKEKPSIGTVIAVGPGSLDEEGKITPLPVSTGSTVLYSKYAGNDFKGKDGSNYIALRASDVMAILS

B1: Cpn10(2) co-chaperonin of A. thaliana (natural protein, UniProt O80504 40-139, looked up)
chain: IKAISTKWEPTKVVPQADRVLVRLEDLPIKSSGGVLLPKAAVKFERYLTGEIISVGSEVGQQVGPGKRVLFSDVSAYEVDLGTDARHCFCKESDLLALVE
notes: Cpn10(2), A. thaliana chloroplast co-chaperonin, At2g44650
B2: Cpn60α2 (natural protein)
chain: not shown
notes: additional glycine-serine at the N-terminus; Cpn60α2, A. thaliana chloroplast chaperonin α subunit, At2g28000; alanine 46 chosen as the first amino acid of the mature protein; The vector codes for an octa-histidine tag followed by a TEV site
B3: Cpn10(1) co-chaperonin of A. thaliana, lacking the N-terminal chloroplast transit peptide (natural protein, UniProt Q9M1C2 43-138, looked up)
chain: STKWEPAKVVPQADRVLVRLEVLPEKSSGGVLLPKSAVKFERYLTGEVVSVGSEVGEVEPGKKVLFSDMSAYEVDFGTEDAKHCFCKESDLLAIVQ
notes: Cpn10(1), A. thaliana chloroplast co-chaperonin, At3g60210, without the transit peptide; Serine 43 chosen as the first amino acid; Cloned between XhoI and NdeI of pET22b+; source: E. coli BL21(T7+), pET22b+, purified (Mono-Q, Superdex 200, Superdex 75)
B4: GroES (natural protein, E. coli, UniProt P0A6F9 1-97, looked up)
chain: MNIRPLHDRVIVKRKEVETKSAGGIVLTGSAAAKSTRGEVLAVGNGRILENGEVKPLDVKVGDIVIFNDGYGVKSEKIDNEEVLIMSESDILAIVEA
notes: GroES, the co-chaperonin (Cpn10) of E. coli
B5: Cpn20 co-chaperonin of A. thaliana (natural protein, UniProt O65282 51-253, looked up)
chain: T1 sequence (looked up) with A32G
notes: Cpn20, A. thaliana chloroplast co-chaperonin of two Cpn10-like domains joined head-to-tail, At5g20720

For one series, the target named is T1, Cpn20 mutant G32A. Put plainly: cell-based or functional assay.
Series [1] deals with the molecule itself. Put plainly: cross-linking; 45 µM co-chaperonin with 1 mM DSS at room temperature, 50 mM Na-HEPES pH 7.5, 10 mM MgCl2, 100 mM KCl; time course; SDS gradient gel, Coomassie.
Another series concerns the target T2, Cpn60β3 (A. thaliana, UniProt P21240 55-600).
T2 construct: Cpn60β3, A. thaliana chloroplast chaperonin β subunit, At1g55490
Kind of series: SEC; reconstitution of 150 µM Cpn60α2 and 100 µM Cpn60β3 with 50 µM mt-cpn10, 5 mM ATP, 50 mM Tris-HCl pH 8, 300 mM NaCl, 10 mM MgCl2, 16 mM KCl, 2 mM DTT, 1 h 30°C; oligomers separated from monomers on Superdex 200 at room temperature. The settings on record: both partners purified. (SEC sorts molecules by how far they enter the pores of the column.)

Series [2] deals with B5. Put plainly: cell-based or functional assay.
Series [3] deals with the molecule itself. Put plainly: native gel or EMSA; co-chaperonins at 100 µM (protomer) mixed at various ratios, 5 min at room temperature, 6% native acrylamide gel; no Cpn60 or ATP. Background: Mobility shift assays separate free from complexed probe on a gel.

Substitutions are numbered along the chain they refer to.

The values that follow come from PMC4242682, “The Cpn10(1) Co-Chaperonin of A. thaliana Functions Only as a Hetero-Oligomer with Cpn20” (PLoS ONE, 2014).

In general, stoichiometry N refers to the number of molecules, sites or subunits per partner or assembly.

T2 sequence (P21240 55-600): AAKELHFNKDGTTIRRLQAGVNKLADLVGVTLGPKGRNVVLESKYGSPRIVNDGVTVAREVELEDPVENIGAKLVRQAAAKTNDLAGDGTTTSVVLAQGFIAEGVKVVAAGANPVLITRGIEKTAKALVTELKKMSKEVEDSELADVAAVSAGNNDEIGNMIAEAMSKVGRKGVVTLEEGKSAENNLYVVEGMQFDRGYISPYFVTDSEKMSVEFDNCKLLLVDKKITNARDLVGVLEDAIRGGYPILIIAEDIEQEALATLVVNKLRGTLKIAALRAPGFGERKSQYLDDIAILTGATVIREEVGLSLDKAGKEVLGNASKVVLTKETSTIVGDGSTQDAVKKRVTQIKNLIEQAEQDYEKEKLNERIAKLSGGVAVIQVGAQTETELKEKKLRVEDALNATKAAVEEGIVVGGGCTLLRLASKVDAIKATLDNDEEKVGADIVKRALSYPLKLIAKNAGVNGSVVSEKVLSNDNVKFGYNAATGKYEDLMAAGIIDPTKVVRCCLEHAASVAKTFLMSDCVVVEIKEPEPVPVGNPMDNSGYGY

For the molecule B1, in the series with Cpn20 mutant G32A, the “refolding of urea-denatured MDH by Cpn60αβ, Cpn10(2) titrated on a background of 20 µM G32A; at a 0.25 ratio of [co-chaperonin]/[Cpn60αβ], against 18.06% with Cpn10(2) alone” value turned out to be 29.1%. In addition, in series [1], the “stoichiometry N” value was determined as 7.
As to B2, the binding result with Cpn60β3 is on record as “binds”.
Take B3: in series [2], the “refolding of urea-denatured MDH by 10 µM Cpn60αβ, Cpn20 titrated (0.625–20 µM) with constant 20 µM Cpn10(1); against 51.39% with Cpn20 alone (% of Cpn60αβ with mt-cpn10)” value was 77.8%. In the series with Cpn20 mutant G32A, the “refolding of urea-denatured MDH by GroEL with the combination of G32A and Cpn10(1), each inactive alone (% of GroEL with saturating GroES)” value is approximately 75%; the “refolding of urea-denatured MDH by chloroplast Cpn60αβ with the combination of G32A and Cpn10(1), each inactive alone (% of Cpn60αβ with mt-cpn10)” value is approximately 40%. Further, in series [1], the “stoichiometry N” value stood at 2.
For B4, in series [1], the “stoichiometry N” value turned out to be 7.
Take B5: in series [3], the binding result was “binds”.
